2 substances from patent US20240352134A1 can be followed below.

As a reminder, the EC50 is the concentration at which the effect is half-maximal. A higher EC50 goes with weaker potency.

The target of assay [1] is human CCR8 (human) (UniProt P51685). The assay can be described thus: cell-based or functional assay.
Assay [2] has the same target. Kind of assay: binding affinity EC50, comparison of Table 12 (FACS on CCR8-expressing cells).

Sequence of human CCR8 (human) (P51685 whole entry): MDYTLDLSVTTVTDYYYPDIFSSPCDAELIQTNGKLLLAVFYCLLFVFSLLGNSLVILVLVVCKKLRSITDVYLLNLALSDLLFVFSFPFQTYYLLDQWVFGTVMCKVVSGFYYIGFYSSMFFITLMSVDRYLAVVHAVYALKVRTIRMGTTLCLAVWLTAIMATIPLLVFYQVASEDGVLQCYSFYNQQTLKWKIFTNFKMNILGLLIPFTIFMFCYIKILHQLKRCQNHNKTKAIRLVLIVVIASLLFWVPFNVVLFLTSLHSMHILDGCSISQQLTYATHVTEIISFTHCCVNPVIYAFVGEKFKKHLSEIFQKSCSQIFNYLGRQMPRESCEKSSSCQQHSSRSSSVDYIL

For GS-1811 (antibody), the Signal block Ca2+ in assay [1] was 4.34 nM. Also, the EC50 in assay [2] is 0.29 nM.
In assay [2], S-531011 (antibody) displayed an EC50 of 0.243 nM.
